In the DeepSol protein solubility set:

Assay: soluble on expression in E. coli; label from the status in PepcDB or PDB records

Row | Sequence | soluble on expression in E. coli
1 | MGSDKIHHHHHHMTEGLTIGIDVGGTNLRFGVFRGNELLDSTRSEVDLREKCRQAPDPEGAAALVTTLLTEGIADLRRHHPNIARVGIAFPGFIDDDGVLLQSPNIPQLIQFDLQTAVGAACQLPVLVENDANAAGYGEFWEERQEHPELQNLLYVGLGTGVGGGWIHQGRPWRGDHGSAMEIGHIIVVPGGRRCGCGNQGCLEQYASARGVQSTYVELTGTAPDAMVIAQMAGDAHSEAASAFRMAGGYLGQVLAHVVKVTDVAVVRIGGGMSAAWDRFAPAMLQRLDADMIPALRGNVEVKRGNDDDLAGMRGAALLADQEFLHS | not soluble
2 | SNQECPDYLRELIRKTKTLTEKPFGIGVVLAFPHDLNIKTILEEKVAVLQLYWGDCSQELVDDAHFAGVKVIPQVGNVEEARKAVAVGVDAIIVQGREAGGHVIGKDGLFSLLPRVVDLVGERDIPVIAAGGIVDGRGYVAALSLGAQGVCLGTRFVATHESYAHPIYKRKLIEYEKTEYTDVFGRARWPGAPQRVLETPFFDDWRSLPAHENEVNQPIIGRSTIHGVEKEIRRFSGTVPNMTTTGDLESMAMYAGQSVGLIKEILPAGEVVKSLVEEAQALILQKFNNATTT | soluble
3 | AHHHHHHGSNLRNKLKLYVITDRRLKPEVESVREALEGGATAIQMRIKNAPTREMYEIGKTLRQLTREYDALFFVDDRVDVALAVDADGVQLGPEDMPIEVAKEIAPNLIIGASVYSLEEALEAEKKGADYLGAGSVFPTKTKEDARVIGLEGLRKIVESVKIPVVAIGGINKDNAREVLKTGVDGIAVISAVMGAEDVRKATEELRKIVEEVLG | soluble
4 | MSDPDLELASRREIYQRIADTPGVHFRALLDELKYAQGTLQYQLRWLADKGLIDVSDDGKYTRYYPAAEFDEADRTVMNALRREYSRRILAHLLTDSPLSTTELSERLDKAQSTVSWHLSKLAEADLVTKERDGRSVVYEVSDPDRVKYLYTVHRRSFTDKVVDRILGLWDSY | not soluble
5 | FHHYKILDTNILIDGRIYDLAKTGFLEGTLLVPNFVLYELQYIADSSDSVKRVRGRRGLDILNKLQNEHIMPIEMYEGDFEDIPEVDSKLIALAKQNGGVIVTNDYNLNKVIQFQNVQVLNINSLANALKPRVI | not soluble
6 | MGSDKIHHHHHHMKFIVTPDIFEKLPDMYVGVVVAKGIDNSKNYPEIDRLLNRYMKYSQQKFDGINVKQNDEIIPYREAFRKIGINPNRYPCSAEALFKRLSKGKNLPHINPLVNLNNAISLKYTVLMGTHSLDGVQDDIIMRLTKSGDNFVPLGKDEVEEPDEGEVVYAVGSDVCIRRWTWRQSEHSKITDQTHDVFFPIDGFVDVNRDAVDKAREDLVGKSKEIFGVETQVGYVDKNHPEFEWE | not soluble
7 | MEHKIVHVGDIPVANDKPFTLFAGMNVLESRDLAMQICEHYVKVTDKLGIPYVFKASFDKANRSSVHSYRGPGLEEGMKIFQELKETFGVKIITDVHTEAQAQPVADVVDVIQLPAFLARQTDLVEAMAKTGAVINVKKPQFMSPGQVGNIVEKFAECGNDKVILCERGSCHGYDNLVVDMLGFGVMKQASNGSPIIFDVTHSLQMRDPSGAASGGRREQTVELAKAGLATGIAGLFIEAHPNPDKARCDGPSALPLDKLEPFLAQMKALDDLIKSFAHIDIR | not soluble
8 | MKKALLYRRGGLGDTLLTFPILEILKRRGYETIAVGNTDYFSIAKEVGYADGVYSFIPEEEFDLKVIISFEGNVKPFPEKREWIVKHYLNSLGLGEEFSTKLPIKPVQDSPLKGKVVIHPSSGSKKKNPPLEVFLKLKDFLEERGKEVVFLLGEAEEHLREVLSPHFLSLSPLEIAKHLKTAGFYVGLDSGISHLASYLGVPSFIVYGPTDPLVWRPIGDKVFQISLNLDCSPCFPNVCEERMCLDTEEVLRKTKETLLRYWNSL | not soluble
9 | MGSSHHHHHHSSGLVPRGSPTVTPTVNRENKPTCYPKAEISRLSASQIRNLNPVFGGSGPALTGLRNLGNTCYMNSILQCLCNAPHLADYFNRNCYQDDINRSNLLGHKGEVAEEFGIIMKALWTGQYRYISPKDFKITIGKINDQFAGYSQQDSQELLLFLMDGLHEDLNKADNRKRYKEENNDHLDDFKAAEHAWQKHKQLNESIIVALFQGQFKSTVQCLTCHKKSRTFEAFMYLSLPLASTSKCTLQDCLRLFSKEEKLTDNNRFYCSHCRARRDSLKKIEIWKLPPVLLVHLKRFSYDGRWKQKLQTSVDFPLENLDLSQYVIGPKNNLKKYNLFSVSNHYGGLDGGHYTAYCKNAARQRWFKFDDHEVSDISVSSVKSSAAYILFYTSLG | soluble
10 | MMKGSRRTGNNTATTLNTPVVIHATQLPQHVSTDEVLQFLESFIDEKENIIDIDTNLSSSISQLKRIQRDFKGLPPAQDFSAAPIQV | soluble
11 | MMKQALRVAFGFLILWASVLHAEVRIVIDSGVDSGRPIGVVPFQWAGPGAAPEDIGGIVAADLRNSGKFNPLDRARLPQQPGSAQEVQPAAWSALGIDAVVVGQVTPNPDGSYNVAYQLVDTGGAPGTVLAQNSYKVNKQWLRYAGHTASDEVFEKLTGIKGAFRTRIAYVVQTNGGQFPYELRVSDYDGYNQFVVHRSPQPLMSPAWSPDGSKLAYVTFESGRSALVIQTLANGAVRQVASFPRHNGAPAFSPDGSKLAFALSKTGSLNLYVMDLASGQIRQVTDGRSNNTEPTWFPDSQNLAFTSDQAGRPQVYKVNINGGAPQRITWEGSQNQDADVSSDGKFMVMVSSNGGQQHIAKQDLATGGVQVLSSTFLDETPSLAPNGTMVIYSSSQGMGSVLNLVSTDGRFKARLPATDGQVKFPAWSPYLLEHHHHHH | soluble
12 | RPSINFYESLIDSSSLDGKLLSPRRSSGWVRVDTNMWGNPFFGFRSDLVSGQFRPDYPFRFSSNLYLSKEVKEIVLNTIASTPRNGVGRYKYSDLGFILLQQIVEKVSGKSLNVFVEERIFRPIGAGSLGYLPLDKYSVSRIAPAQNDKFLRKSIVRGTVDDE | not soluble
13 | MSLRSTKTIHVISCHAEGEVGDVIVGGVAPPPGETLWEQRSFIARDQTLRNFVLNEPRGGVFRHVNLLVPPRHPEADAAFIIMEPEDTPPMSGSNSICVSTVLLDGGIVPMIEPITEMVLEAPGGLVRVKAECRNGKAERIFVQNVTSFADKLSVPLDVEGIGTLTVDTAYGGDSFVVVDAEALGFAIVEDEAKDIARLGVRITNAANEQLGFSHPENPDWNHISFCAFCGPLSQTPTGLTGRSAVAIQPGKVDRSPTGTAVSARMALMAARGQMTIGDTFEAVSIIGSSFTGRIVSQQMAGDRPGIVPEISGRGWITGIHQHMLDPSDPWPGGYKLSDTWGAEGHHHHHH | soluble
14 | MRKIIVGAFVSLDGIMQAPGGPHEDPVGGFDHGGWAAPYFDETMGQAVDEMFSKPFDLLLGRKTYDIFAAHWPYAGPDDPIGPLFDRITKYVATRNPDLRLDWQNSRTLGSDPVAMLKKLKSEEGPDLLTQGSTDFLQTLFSNDLVDEMYISYFPVVLGKGKRLFGHGAMPMAMKLLGSKVSGTGVTANKYVRSGPVVTGSFEFEQPTEAELERRRKLS | soluble
15 | MSLVTKEREQIYILDGDIPFLAQRARLEANFTMEAKAHIQLFHQYFFNLPPDNDYIKWTVGKAMYMADGTALKQKQALDENGFYSDIISSSAVCTIMCDSIQFDEHERKFTYYGTQLIKRRTKDLKRSMITTGYIESVPRTRNNPHGLLITNWRTLENKDLDYEGHHHHHH | soluble
16 | SLGVYKARRFSQSTKKLGIHDKVLMAAAEEVMQGIWEADLGSGVIKKRLPLQQGKSGGARTIIFFKSANHVFFYDGWSKSGLSSKGSKEIEDDELAAYKKMANAFLAFSNKQIEDLIETGFLIEVKNER | not soluble
17 | MTIYNINFGIGWASSGVEYAQAYRAKLLRRTNQDTKFVFLDFIQSENIQTLTQNIGFKDQEVIWLYQYFSDISLAPTTYTLDDIERELGHDISFRERNGKIVRLYFNGKSSFVTCYLQNEQKDIVDRAEFVINSMLVRKDFYSYTRIFSEYYAPADNKAKLYMRQFYNQDGSIAYNEYIDGDSSIYVFEDAVLYNKTEFIAYFLQRLNLTRDDIVILDRASDIGQAVLQHKGDSKVGVVIHADHYSNNMMSEQHILWNNYYEYQFSKAKYIDFFITATDIQNHMVCRQFEQYQGYRPRVYTIPVGSIDALSYPTLSRKPYAMISASRLANEKHIDWLVKAVIVAKRQVPELTFDIYGEGSEKTRLRKIIDTHRAQDYIRLLGHVKLDEIYNDYELFLSASTSEGFGLTLMEAVGSGLGMIGLNVNYGNPTFIRDGENGYLVPFDTDEDSVDDVIAKLAHAIVMYFNNGPQTPHDISYEVAQQFMTQDIILKWETLVQEVLHD | not soluble
